Reference: patent publication US20150301046A1 (published 2015)
Substitutions are numbered along the chain they refer to. Numbers in names are those of the source.

B1: 13B8.2 Fab fragment (Fab, V domains shown)
VH: QVQLKQSGPGLVQPSQSLSITCTVSGFSLTTFGVHWVRQSPGKGLEWLGVIWRSGITDYNVPFMSRLSITKDNSKSQVFFKLNSLQPDDTAIYYCAKNDPGTGFAYWGQGTLVTVSA
VL: DIQMTQSPASLSASVGETVTFTCRASEMIYSYLAWYQQKQGKSPQLLVHDAKTLAEGVPSRFSGGGSGTQFSLKINTLQPEDFGTYYCQHHYGNPPTFGGGTKLEIKR
notes: Chimeric Fab expressed in the periplasm of E. coli; In the staining it was used as a monomer or multimerized on Strep-Tactin PE; also called CD4 wt (13B8.2); 13B8.2 wildtype (wt) Fab fragment
B2: mutant 13B8.2 Fab fragment, CD4 mutant 3 (H35A) (Fab, V domains shown)
VH: B1 VH with H35A
VL: B1 VL
notes: also called Fab mutant 3; H35-H
B3: mutant 13B8.2 Fab fragment, CD4 mutant 2 (Y92A) (Fab, V domains shown)
VH: B1 VH
VL: B1 VL with Y92A
notes: also called Fab mutant 2; Y92-L
B4: mutant 13B8.2 Fab fragment, CD4 mutant 1 (F100A) (Fab, V domains shown)
VH: B1 VH with F104A
VL: B1 VL
notes: also called Fab mutant 1; F100K-H

Assays:
[1] = molecular target: T1, CD4 (cell surface receptor molecule on PBMCs) (human, UniProt P01730 26-458); test: flow cytometry on PBMCs, Fab multimerized on Strep-Tactin PE
T1 construct: whole, on cells; also called CD4 receptor molecule
Experimental: For staining of a CD4 receptor molecule specific target cell population in a mixture of cells, Strep-Tactin® labeled with phycoerythrine as a fluorescent label (IBA GmbH, Göttingen, Germany) was used as multimerization reagent together with the monomeric CD4 binding Fab-One-STrEP fragment of the variants of the antibody 13B8.2 (that served as receptor binding reagent) as described below. For FACS analysis 5×10⁶ PBMCs were incubated with Fab multimers consisting of 0.2 μg Fab-fragment (comprising binding site B) equipped with the One-STrEP-tag (binding partner C) as receptor binding reagent and 0.75 μg Strep-Tactin® PE (IBA GmbH, Göttingen, Germany) as multimerization reagent using the protocol below. In addition, after FACS separation, the multivalent complexes were disrupted in a portion of each of the stained cells by addition of biotin as described below. […]
For staining and dissociation experiments, 5×10⁶ PBMCs were incubated with the respective anti-CD4 Fab-multimer-Strep-Tactin® PE complexes or with the corresponding Fab-monomers (the latter not complexed with Strep-Tactin® PE). […] As expected from the monomer staining experiments, no remaining Fab monomers could be detected for mutants 2, 3 and 4, whereas substantial residual cell surface bound Fab of the wild-type and mutant 1 variants was observed.

[2] = molecular target: T1, CD4 (cell surface receptor molecule on …); test: flow cytometry on PBMCs, Fab multimerized on Strep-Tactin PE (before the Western blot experiment)
Experimental: CD4 Fab-multimers were generated with the different anti-CD4 Fab-mutants listed in Table 1 and further specified in FIG. 2 and Strep-Tactin® PE (IBA GmbH, Göttingen, Germany). PBMCs were incubated with the different CD4 Fab-multimers and consistent cell staining in each sample was verified by flow cytometry (solid line compared to the tinted histogram representing unstained cells). Then, cells were treated with D-biotin and subsequently washed. Finally, washed cells were lysed, and the soluble (S) and insoluble (I) fractions were analyzed for remaining Fab-monomers using highly specific anti-Strep-Tag® antibodies (StrepMAB-Classic Horse Radish Peroxidase (HRP) conjugate; IBA GmbH, Göttingen, Germany). To control application of consistent amounts of insoluble cell material, β-actin was detected simultaneously with a primary antibody against β-actin from rabbit (Santa Cruz Biotechnology Inc., Santa Cruz, USA) and a secondary antibody against rabbit Ig (immunoglobulin) conjugated to HRP (Sigma, St. Louis, USA). […]

Binder	binding result [1]	binding result [2]
B1	binds	
B2		binds
B3		binds
B4	binds	
